Source: patent publication US20240059773A1 (PALLEON PHARMACEUTICALS, published 2024)

Columns and labels:
[1] = biological target: T1, recombinant human PD-1 (hPD-1) (human, UniProt Q15116 25-167, limits assumed); assay: BLI (ForteBio Octet); ASC captured on AHC biosensor, hPD-1 titrated from 100 nM in a 2x series; 1:1 fit
Protocol: ASCs were captured on an AHC (Anti-human IgG-Capture) biosensor. hPD-1 analytes were titrated from 100 nM in a 2× series dilution. The signal was subtracted with buffer reference and aligned to baseline. KD, Kon and Koff values were generated using a 1:1 fitting model.

[2] = biological target: human PD-1 expressed on Jurkat T cells (human, UniProt Q15116 25-288); assay: cell-based or functional assay
[3] = biological target: T1, recombinant human PD-1 (hPD-1); assay: competition ELISA: antibody titrated 3x and mixed with biotinylated hPD-L1-Fc (1 ug/mL), loaded on hPD-1-coated wells; residual hPD-L1-Fc detected with streptavidin-HRP, A450
Source text: The plate was developed with TMB and Stop buffer and the absorbance at 450 nm was read using a SpectraMax plate reader. A450 absorbance curves and IC50S were generated using GraphPad Prism software.

T1 sequence (Q15116 25-167 limits assumed): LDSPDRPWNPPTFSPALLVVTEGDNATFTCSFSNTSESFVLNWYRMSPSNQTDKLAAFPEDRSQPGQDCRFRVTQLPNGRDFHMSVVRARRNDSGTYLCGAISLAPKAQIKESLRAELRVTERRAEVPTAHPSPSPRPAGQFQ
human PD-1 expressed on Jurkat T cells, sequence (Q15116 25-288): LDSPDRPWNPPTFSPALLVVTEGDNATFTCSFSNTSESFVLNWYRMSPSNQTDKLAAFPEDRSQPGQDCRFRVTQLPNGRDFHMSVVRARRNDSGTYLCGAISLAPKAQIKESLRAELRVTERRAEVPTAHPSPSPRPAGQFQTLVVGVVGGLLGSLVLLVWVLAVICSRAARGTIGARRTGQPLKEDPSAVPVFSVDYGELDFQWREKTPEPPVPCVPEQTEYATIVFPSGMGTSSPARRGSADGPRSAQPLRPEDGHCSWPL

B1: ASC #3 (Janus anti-PD-1 antibody sialidase conjugate) (antibody, human IgG1, kappa, N297A)
light: EIVLTQSPATLSLSPGERATLSCRASKGVSTSGYSYLHWYQQKPGQAPRLLIYLASYLESGVPARFSGSGSGTDFTLTISSLEPEDFAVYYCQHSRDLPLTFGGGTKVEIKRTVAAPSVFIFPPSDEQLKSGTASVVCLLNNFYPREAKVQWKVDNALQSGNSQESVTEQDSKDSTYSLSSTLTLSKADYEKHKVYACEVTHQGLSSPVTKSFNRGEC
heavy: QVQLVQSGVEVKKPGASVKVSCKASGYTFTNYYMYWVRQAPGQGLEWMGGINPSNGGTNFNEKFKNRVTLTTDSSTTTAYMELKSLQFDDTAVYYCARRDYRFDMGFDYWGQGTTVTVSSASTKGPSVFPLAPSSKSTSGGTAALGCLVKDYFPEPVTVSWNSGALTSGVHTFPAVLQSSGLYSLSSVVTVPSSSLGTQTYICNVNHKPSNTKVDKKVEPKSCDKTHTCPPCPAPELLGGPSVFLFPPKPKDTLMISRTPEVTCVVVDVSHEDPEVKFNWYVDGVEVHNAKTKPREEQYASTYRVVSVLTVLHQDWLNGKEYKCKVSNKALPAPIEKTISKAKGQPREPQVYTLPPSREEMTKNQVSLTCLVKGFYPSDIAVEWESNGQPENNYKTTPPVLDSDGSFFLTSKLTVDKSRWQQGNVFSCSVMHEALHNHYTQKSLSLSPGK
chain: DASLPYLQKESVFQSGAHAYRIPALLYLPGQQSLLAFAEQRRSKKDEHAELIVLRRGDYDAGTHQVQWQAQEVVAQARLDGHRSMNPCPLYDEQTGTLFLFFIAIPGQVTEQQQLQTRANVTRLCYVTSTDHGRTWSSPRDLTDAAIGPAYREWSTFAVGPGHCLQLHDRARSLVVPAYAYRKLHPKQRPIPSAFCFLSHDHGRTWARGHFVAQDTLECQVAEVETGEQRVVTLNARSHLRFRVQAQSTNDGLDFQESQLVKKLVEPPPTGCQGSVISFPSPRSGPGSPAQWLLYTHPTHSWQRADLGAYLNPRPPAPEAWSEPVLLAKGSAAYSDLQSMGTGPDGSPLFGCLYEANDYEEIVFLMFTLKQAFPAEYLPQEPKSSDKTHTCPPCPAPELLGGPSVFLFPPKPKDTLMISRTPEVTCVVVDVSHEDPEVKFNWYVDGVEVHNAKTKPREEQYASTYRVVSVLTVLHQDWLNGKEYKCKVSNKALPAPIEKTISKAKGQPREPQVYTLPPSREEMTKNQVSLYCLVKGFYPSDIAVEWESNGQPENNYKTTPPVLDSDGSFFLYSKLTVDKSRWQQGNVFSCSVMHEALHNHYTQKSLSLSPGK
notes: Janus format: one antibody arm (one heavy and one light chain) and one sialidase-Fc fusion, heterodimerised by knob (T366Y) and hole (Y407T) mutations; also called ASC #3-1; ASC #3-2
Kd [1]: 10.3 nM | EC50 (nM), fold induction of NFAT-driven luciferase [2]: 7.23 nM | IC50 (read off the curve) [3]: ~7 nM
